Molecular target: T1, S0_2.126 (synthetic construct (de novo design))
T1 chain: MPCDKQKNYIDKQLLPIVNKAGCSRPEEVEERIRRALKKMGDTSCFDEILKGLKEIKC
Experiment: SPR

Kd: ~0.05 nM
B1: D25 IgG (antibody, V domains shown)
VH: QVQLVQSGAEVKKPGSSVMVSCQASGGPLRNYIINWLRQAPGQGPEWMGGIIPVLGTVHYAPKFQGRVTITADESTDTAYIHLISLRSEDTAMYYCATETALVVSTTYLPHYFDNWGQGTLVTVSS
VL: DIQMTQSPSSLSAAVGDRVTITCQASQDIVNYLNWYQQKPGKAPKLLIYVASNLETGVPSRFSGSGSGTDFSLTISSLQPEDVATYYCQQYDNLPLTFGGGTKVEIK
